Reference: article PMC8571522, “siRNA screening identifies METTL9 as a histidine Nπ-methyltransferase that targets the proinflammatory protein S100A9” (The Journal of Biological Chemistry, 2021)

Key:
[1] = target: T1, recombinant S100A9 prepared by cleavage of GST-S100A9, after the reaction with GST-METTL9 in the absence of … (mouse, UniProt P31725 1-113); experiment: pull-down; recombinant GST-cleaved S100A9 after an in vitro methylation reaction with GST-METTL9 in the presence or the absence of SAM, then binding to GST-S100A8 (Fig. S6); conditions: both partners purified
T1 construct: S100A9, mouse; also called GST-cleaved S100A9; mS100A9; source: E. coli BL21-CodonPlus (DE3)-RIL, purified (Glutathione Sepharose 4B), GST removed with PreScission Protease; incubated with GST-METTL9 in the absence of SAM
T1 sequence (looked up): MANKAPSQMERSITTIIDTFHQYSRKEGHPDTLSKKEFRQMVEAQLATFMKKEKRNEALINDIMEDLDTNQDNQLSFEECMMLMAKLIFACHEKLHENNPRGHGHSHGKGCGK

[2] = target: T2, recombinant S100A9 prepared by cleavage of GST-S100A9, methylated in vitro by GST-METTL9 in the presence of … (mouse, UniProt P31725 1-113, Nπ-methylhistidine at His-107); experiment: as above; conditions: both partners purified
T2 construct: S100A9, mouse; methylated at His-107 by METTL9; also called de novo methylated S100A9; methylated recombinant S100A9; source: E. coli BL21-CodonPlus (DE3)-RIL, purified (Glutathione Sepharose 4B), GST removed with PreScission Protease; in vitro methylation reaction with GST-METTL9 in the presence of SAM
T2 sequence (looked up): T1 sequence (looked up)

B1: GST-fused mouse S100A8 (natural protein, UniProt P27005 1-89, looked up)
chain: MPSELEKALSNLIDVYHNYSNIQGNHHALYKNDFKKMVTTECPQFVQNINIENLFRELDINSDNAINFEEFLAMVIKVGVASHKDSHKE
notes: S100A8, mouse; Held on glutathione beads in the pull-downs; also called GST-S100A8; mS100A8; source: E. coli BL21, purified (Glutathione Sepharose 4B)
- binding result [1]: binds
- binding result [2]: binds
